Experimental data published in US20230235039A1 (REGENECORE BIOTECH, published 2023).

How the values were obtained:
[1] = target: T1, human recombinant IL-5 protein with a histidine tag at carboxyl terminal (human, UniProt P05113 20-134); assay: BLI (Octet 96), binding molecule on sensor, IL-5 antigen 200 nM and 2-fold dilutions
T1 construct: range 20-134; Expressed in 293F cells; also called hrIL-5-cHis; human IL-5 protein; not shown: histidine tag at carboxyl terminal
Method: Formulation of SD buffer: A proper amount of bovine serum albumin and Tween 20 were dissolved in 1×PBS (pH 7.4), so that the mass (or volume) fractions of bovine serum albumin and Tween 20 were 0.1% and 0.02% respectively. The IL-5 binding molecule was formulated in the SD buffer to a concentration of 10 μg/mL. Formulation of antigen working solution: the antigen was formulated in the SD buffer to 200 nM, and then diluted by a 2-fold gradient in a total of 5 concentration gradients. In addition, a blank control of SD buffer was also provided. A proper amount of 0.1M glycine stock solution was diluted by 10-fold in deionized water and mixed uniformly, to obtain a regeneration solution. Octet 96 and the Data Acquisition software in its supporting computer were run. The bottom and side of the acquisition probe were cleaned using a lens tissue with a proper amount of 75% ethanol. The instrument was pre-warmed for 15 min or more. Sensor pre-wetting: sensor was soaked in the SD buffer for 10 min or more before the assay. Then, the machine procedure was set according to baseline→antibody→baseline→binding antigen→dissociating antigen→regenerating sensor for assay operation.

[2] = target: T1, human recombinant IL-5 protein with a …; assay: ELISA, IL-5 protein coated on the plate, VHH titrated, anti-HA tag HRP secondary antibody, OD450
Method: 50 μL of 1 μg/mL IL-5 protein was coated on an ELISA plate at 4° C. overnight. The plate was washed. 200 μL of 5% milk was added for blocking at 37° C. for 1 h. The IL-5 protein-specific single-domain antibody (VHH) obtained in Example 1 was diluted to 2 μg/mL, and then diluted by a 5-fold gradient, in a total of 8 concentration gradients. The plate was washed. 50 μL of antibody was added in duplicate wells, and then incubated at 37° C. for 1 h. The plate was washed. 50 μL of mouse anti-HA tag HRP secondary antibody was added, and then incubated at 37° C. for 30 min. The plate was washed (for multiple times). 50 μL of TMB that had been restored to room temperature was added to react at room temperature in the dark for 15 min. 50 µL of stopping solution (1N HCl) was added. The resultant was measured using a microplate reader and then recorded. The curve was plotted.

B1: humanized Fc-fused single-domain antibody 2B3-V2 (Fc fusion, not shown: a dimerising Fc or GST)
chain (part 1 of 2): QVQLVESGGGSVQAGGSLRLSCAASGNTFSFSTYCMGWFRQSPGKEREGSLATIYDASTAYAGSVKGRFTISRDNSKNILYLQMNNLRAEDTAVYYCAAARYCMFWSHPSYWGQGTQVTVSS
chain (part 2 of 2): HHHHHH
notes: Humanized variant of 2B3; vector RJK-V4-hFC
**Q.** For B1, which Kd [1] is on record?
**A.** The Kd was 2.06 nM.

**Q.** And the koff [1]?
**A.** Its koff is 0.000406 s⁻¹.

**Q.** And the kon [1]?
**A.** Its kon is 197000 M⁻¹ s⁻¹.

B2: Fc fusion protein of anti-IL-5 single-domain antibody 2B3 (Fc fusion, not shown: a dimerising Fc or GST)
chain (part 1 of 2): QVQLVESGGGSVQAGGSLRLSCAASGNTFSFSTYCMGWFRQSPGKEREGSLATIYDGSTAYAGSVKGRFTISVDNAKNILYLQMNNLKPEDTAMYYCAAAKYCMFWSDPSYWGQGTQVTVSS
chain (part 2 of 2): HHHHHH
notes: Vector RJK-V4-hFC; also called clone 2B3
**Q.** Which Kd [1] does the source give for B2 here?
**A.** Its Kd is 1.6 nM.

**Q.** And the koff [1]?
**A.** The koff was 0.000295 s⁻¹.

**Q.** What about the kon [1] of the same binder?
**A.** The kon was 184000 M⁻¹ s⁻¹.

B3: single-domain antibody 1B3 (VHH, expressed in E. coli) (VHH)
VHH: QVQLVESGGGSVQAGGSLRLSCAASGITASTSCMGWFRQSPGKEREGSLATIYDGSTSYADSVKGRFTISVDNAKNILYLQMNNLKPEDTAMYYCAAAKYCMFWSHPSYWGQGTQVTVSS
notes: pMECS-VHH expressed in E. coli HB2151, purified on Ni-column; not shown: C-terminal tags from vector pMECS (HA tag, and the His tag implied by Ni-column purification)
**Q.** B3 was tested. Which “EC50 (read off the curve)” value [2] did it give?
**A.** Its value is ~6 nM.

B4: humanized Fc-fused single-domain antibody 1B3-V2 (Fc fusion, not shown: a dimerising Fc or GST)
chain (part 1 of 2): QVQLVESGGGSVQAGGSLRLSCAASGITASTSCMGWFRQSPGKEREGSLATIYDASTSYADSVKGRFTISRDNSKNILYLQMNNLRAEDTAVYYCAAARYCMFWSHPSYWGQGTQVTVSS
chain (part 2 of 2): HHHHHH
notes: Humanized variant of 1B3; vector RJK-V4-hFC
**Q.** How did the Kd [1] turn out when B4 was run?
**A.** Its Kd is 1.02 nM.

**Q.** What about the koff [1] of the same binder?
**A.** The koff was 0.000184 s⁻¹.

**Q.** And the kon [1]?
**A.** Its kon is 180000 M⁻¹ s⁻¹.

B5: Fc fusion protein of anti-IL-5 single-domain antibody 1B3 (Fc fusion, not shown: a dimerising Fc or GST)
chain (part 1 of 2): QVQLVESGGGSVQAGGSLRLSCAASGITASTSCMGWFRQSPGKEREGSLATIYDGSTSYADSVKGRFTISVDNAKNILYLQMNNLKPEDTAMYYCAAAKYCMFWSHPSYWGQGTQVTVSS
chain (part 2 of 2): HHHHHH
notes: Vector RJK-V4-hFC; Embodiments name a human IgG4 Fc; also called clone 1B3
**Q.** For B5, which Kd [1] is on record?
**A.** The Kd was 0.88 nM.

**Q.** And the koff [1]?
**A.** Its koff is 0.000132 s⁻¹.

**Q.** And the kon [1]?
**A.** The kon was 149000 M⁻¹ s⁻¹.

B6: single-domain antibody 1B8 (VHH, expressed in E. coli) (VHH)
VHH: QVQLVESGGGSVQAGGSLRLSCAASGITASTSCMGWFRQSPGKEREGSLATIYDGSTSYADSVKGQFTISVDNAKNILYLQMNNLKPEDTAMYYCAAAKYCMFWSHPSYWGQGTQVTVSS
notes: as for B3
**Q.** For B6, which “EC50 (read off the curve)” value [2] is on record?
**A.** Its value is ~4 nM.
